Experimental data: publication PMC6825267
Where two headings read alike, the source gives them in different places.

B1: U probe (GAA repeat to CUU) (ssRNA)
RNA: UUUCGACUUCUUCUUGACAUC
B2: M probe (GAA repeat, AT1G50740 intron 1 flank) (ssRNA)
RNA: UUUCGAGAAGAAGAAGACAUC
B3: M2 probe (motif reduced to GAAGA) (ssRNA)
RNA: UUUCGACUUGAAGAUCUCAUC

Key:
Experiment in all cases: EMSA
[1] = biological target: T1, HIN1 1-267 (N-terminal, MYB/SANT domains) (Arabidopsis thaliana, UniProt F4J686 1-267)
T1 sequence: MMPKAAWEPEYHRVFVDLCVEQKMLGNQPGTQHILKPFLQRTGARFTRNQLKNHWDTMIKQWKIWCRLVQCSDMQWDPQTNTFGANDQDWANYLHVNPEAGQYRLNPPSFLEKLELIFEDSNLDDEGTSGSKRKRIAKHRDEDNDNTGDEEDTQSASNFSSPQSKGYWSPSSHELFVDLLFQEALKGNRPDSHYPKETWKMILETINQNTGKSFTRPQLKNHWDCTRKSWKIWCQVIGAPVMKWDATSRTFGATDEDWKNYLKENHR

[2] = biological target: T2, RZ-1C (Arabidopsis thaliana, UniProt Q8RWN5 1-310)
T2 sequence: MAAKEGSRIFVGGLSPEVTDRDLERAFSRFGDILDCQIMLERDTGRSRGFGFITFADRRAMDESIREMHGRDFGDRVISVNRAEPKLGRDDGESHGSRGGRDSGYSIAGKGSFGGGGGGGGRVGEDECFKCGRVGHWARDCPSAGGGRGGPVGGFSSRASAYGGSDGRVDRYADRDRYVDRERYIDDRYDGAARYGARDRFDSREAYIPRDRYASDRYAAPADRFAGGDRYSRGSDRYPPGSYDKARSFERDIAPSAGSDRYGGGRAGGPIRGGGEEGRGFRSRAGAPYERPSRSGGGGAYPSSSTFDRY

[3] = biological target: T1, HIN1 1-267 (N-terminal, MYB/SANT …); remark: listed apart in the source
[4] = biological target: T2, RZ-1C; remark: listed apart in the source

| Binder | binding result [1] | binding result [2] | binding result [3] | binding result [4] |
| --- | --- | --- | --- | --- |
| B1 | no binding | no binding |  |  |
| B2 | binds | binds |  |  |
| B3 |  |  | no binding | no binding |
